Abundance fitness data for 167 variants are collected here from the Human Domainome abundance scans (Beltran et al. 2025).

± gives the uncertainty stated by the source.

To fix the notation:
B1: Transitional endoplasmic reticulum ATPase, residues 26 to 106; numbered along this chain, P55072 (parent)
chain: LIVDEAINEDNSVVSLSQPKMDELQLFRGDTVLLKGKKRREAVCIVLSDDTCSDEKIRMNRVVRNNLRVRLGDVISIQPCP

The variants in this data set derive from B1. Description: abundance fitness (aPCA) (normalised: wild type 0, dead -1); higher = more abundant; growth selection in yeast, the domain comes from the species named. As to conditions: Homo sapiens.
For the variant N8H, the abundance fitness is -0.042 ± 0.095.

N8Y: the abundance fitness worked out at 0.006 ± 0.13. On to N8D, for which the abundance fitness is 0.075 ± 0.09. The result for N8A reads -0.059 ± 0.059; that for N8P, -0.096 ± 0.061; that for N8S, -0.036 ± 0.053. For the variant N8M, the abundance fitness was -0.099 ± 0.068.

In the case of N8F, the abundance fitness is -0.083 ± 0.12. On to N8R, for which the abundance fitness is -0.083 ± 0.036.

On to N8Q, for which the abundance fitness was -0.025 ± 0.089. With N8E, the abundance fitness turned out to be 0.013 ± 0.061. N8V: the abundance fitness was -0.096 ± 0.062.

Turning to N8T, the abundance fitness came out at 0.046 ± 0.067. On to N8L, for which the abundance fitness is -0.022 ± 0.049. To N8I belongs -0.042 ± 0.14. As to Q18W, the abundance fitness is -0.206 ± 0.1. Q18A: the abundance fitness is -0.003 ± 0.072. Turning to Q18C, the abundance fitness is -0.074 ± 0.067. For Q18F, the abundance fitness is -0.191 ± 0.074. Turning to Q18T, the abundance fitness is -0.148 ± 0.096. The result for Q18M reads 0.249 ± 0.13; that for Q18E, -0.114 ± 0.1. The result for Q18G reads -0.034 ± 0.043; that for Q18H, 0.036 ± 0.17. To Q18N belongs -0.461 ± 0.32; to Q18Y, -0.23 ± 0.15; to Q18I, -0.088 ± 0.076. In the case of Q18K, the abundance fitness is -0.037 ± 0.19. Q18V: the abundance fitness came out at 0.001 ± 0.05. On to Q18P, for which the abundance fitness is -0.078 ± 0.092. As for Q18L, the abundance fitness was -0.049 ± 0.052.

Take Q18D: the abundance fitness is -0.264 ± 0.089. For Q18R, the abundance fitness is -0.046 ± 0.062. To Q18S belongs -0.052 ± 0.069; to D22K, -0.063 ± 0.083. As to D22V, the abundance fitness is -0.049 ± 0.054. The result for D22L reads -0.008 ± 0.048; that for D22E, -0.038 ± 0.059; that for D22T, -0.037 ± 0.063. With D22W, the abundance fitness is -0.281 ± 0.057. As to D22G, the abundance fitness is -0.101 ± 0.046. On to D22I, for which the abundance fitness was -0.118 ± 0.085.

On to D22C, for which the abundance fitness is -0.083 ± 0.051. As for D22F, the abundance fitness is -0.1 ± 0.063. The result for D22A reads -0.109 ± 0.05; that for D22Q, 0.023 ± 0.092. As to D22P, the abundance fitness was -0.862 ± 0.18. Turning to D22S, the abundance fitness is -0.084 ± 0.05. For D22N, the abundance fitness is -0.036 ± 0.069. As to D22M, the abundance fitness is -0.06 ± 0.066. On to D22Y, for which the abundance fitness is -0.067 ± 0.088.

For D22R, the abundance fitness is -0.015 ± 0.04. The result for L24W reads -0.265 ± 0.075.

For the variant L24A, the abundance fitness is -0.553 ± 0.054.

As to L24V, the abundance fitness is -0.429 ± 0.041. Consider L24T, for which the abundance fitness is -0.705 ± 0.088.

Regarding L24C, the abundance fitness was -0.574 ± 0.12.

Turning to L24P, the abundance fitness was -0.551 ± 0.099. Turning to L24G, the abundance fitness was -0.775 ± 0.069. With L24E, the abundance fitness was -0.709 ± 0.079. Regarding L24D, the abundance fitness is -0.759 ± 0.079. On to L24Q, for which the abundance fitness is -0.516 ± 0.14. Take L24S: the abundance fitness was -0.74 ± 0.095.

In the case of L24K, the abundance fitness was -0.98 ± 0.2. L24H: the abundance fitness was -0.366 ± 0.21.

For L24R, the abundance fitness was -0.509 ± 0.045. Turning to L24M, the abundance fitness is -0.249 ± 0.076. Turning to L24I, the abundance fitness was -0.338 ± 0.099.

L24N: the abundance fitness is -0.47 ± 0.19. Turning to L24Y, the abundance fitness is -0.224 ± 0.093. With L24F, the abundance fitness is -0.321 ± 0.11. With E9P, the abundance fitness turned out to be 0.048 ± 0.079. As to E9V, the abundance fitness is -0.157 ± 0.052. To E9D belongs 0.041 ± 0.091; to E9L, -0.087 ± 0.044; to E9F, -0.057 ± 0.084. Regarding E9S, the abundance fitness was found to be 0.043 ± 0.061. The result for E9Y reads -0.129 ± 0.13; that for E9Q, -0.127 ± 0.12.

Regarding E9T, the abundance fitness was -0.107 ± 0.076. Turning to E9W, the abundance fitness was -0.098 ± 0.049.

On to E9K, for which the abundance fitness was -0.216 ± 0.079. As to E9C, the abundance fitness was found to be 0.045 ± 0.069. As for E9N, the abundance fitness is 0.184 ± 0.24. With E9H, the abundance fitness was -0.109 ± 0.11.

For D10C, the abundance fitness was -0.165 ± 0.099. For D10S, the abundance fitness was -0.14 ± 0.061. D10Q: the abundance fitness was -0.072 ± 0.072. The result for D10L reads -0.105 ± 0.042; that for D10V, -0.14 ± 0.041. In the case of D10T, the abundance fitness was -0.01 ± 0.068. Turning to D10H, the abundance fitness worked out at 0.098 ± 0.13. On to D10N, for which the abundance fitness was -0.228 ± 0.13. On to D10Y, for which the abundance fitness was -0.096 ± 0.12. For D10E, the abundance fitness was -0.159 ± 0.077. To D10P belongs -0.02 ± 0.071; to D10A, -0.059 ± 0.041; to D10R, -0.158 ± 0.058.

For D10M, the abundance fitness is -0.054 ± 0.058. For D10K, the abundance fitness was -0.007 ± 0.11.

For the variant D10I, the abundance fitness was -0.121 ± 0.044. Consider D10W, for which the abundance fitness is -0.189 ± 0.071.

Consider Q25C, for which the abundance fitness was determined as 0.006 ± 0.073.

As to Q25K, the abundance fitness was -0.013 ± 0.076. Q25S: the abundance fitness turned out to be 0.027 ± 0.056.

For the variant Q25T, the abundance fitness was -0.102 ± 0.062. Regarding Q25W, the abundance fitness is -0.256 ± 0.11. As for Q25M, the abundance fitness was -0.106 ± 0.091. Q25I: the abundance fitness is -0.043 ± 0.081. Q25V: the abundance fitness is -0.202 ± 0.052. To Q25A belongs -0.116 ± 0.052. Q25H: the abundance fitness is -0.168 ± 0.15. With Q25N, the abundance fitness came to 0.038 ± 0.098.

With Q25G, the abundance fitness was -0.045 ± 0.05. As to Q25P, the abundance fitness is -1 ± 0.18. With Q25E, the abundance fitness was -0.156 ± 0.081. With Q25F, the abundance fitness was -0.129 ± 0.096. Regarding Q25D, the abundance fitness amounted to 0.048 ± 0.094. As for Q25R, the abundance fitness is -0.081 ± 0.053. To Q25L belongs -0.149 ± 0.046; to Q25Y, -0.485 ± 0.14. The result for P19W reads -0.016 ± 0.08; that for P19H, -0.003 ± 0.15.

As to P19N, the abundance fitness is -0.251 ± 0.26. P19I: the abundance fitness stood at 0.088 ± 0.12. To P19K belongs -0.252 ± 0.18; to P19M, 0.015 ± 0.14; to P19Q, 0.093 ± 0.1.

As for P19C, the abundance fitness is -0.179 ± 0.11.

P19A: the abundance fitness was -0.018 ± 0.054. Take P19Y: the abundance fitness turned out to be 0.072 ± 0.24.

On to P19G, for which the abundance fitness turned out to be 0.063 ± 0.045. With P19E, the abundance fitness worked out at 0.087 ± 0.088. Consider P19S, for which the abundance fitness is 0.051 ± 0.059. With P19V, the abundance fitness came out at 0.047 ± 0.054. To P19D belongs -0.101 ± 0.16; to M21Y, -0.516 ± 0.16; to M21P, -0.902 ± 0.25. In the case of M21S, the abundance fitness was -1.03 ± 0.16. Consider M21L, for which the abundance fitness came to 0.048 ± 0.074. As to M21K, the abundance fitness was -0.881 ± 0.17. Regarding M21C, the abundance fitness was -0.435 ± 0.12. M21A: the abundance fitness is -0.638 ± 0.071. The result for M21Q reads -0.752 ± 0.18; that for M21G, -0.894 ± 0.081; that for M21V, -0.759 ± 0.12. Take M21H: the abundance fitness is -1.21 ± 0.41. With M21R, the abundance fitness is -0.888 ± 0.055. To M21I belongs -0.124 ± 0.11. Turning to M21E, the abundance fitness is -0.731 ± 0.31. The result for M21T reads -0.825 ± 0.18. As for I7T, the abundance fitness is -0.099 ± 0.079. As for I7G, the abundance fitness is -0.011 ± 0.031. For I7E, the abundance fitness came out at 0.127 ± 0.075. With I7M, the abundance fitness stood at 0.039 ± 0.066.

In the case of I7S, the abundance fitness was -0.048 ± 0.061. The result for I7L reads 0.048 ± 0.05; that for I7C, -0.021 ± 0.1; that for I7N, -0.193 ± 0.3.

On to I7Y, for which the abundance fitness is -0.238 ± 0.14. I7V: the abundance fitness was -0.07 ± 0.053. The result for I7D reads 0.032 ± 0.12. As to I7Q, the abundance fitness was -0.17 ± 0.089. To I7H belongs -0.15 ± 0.13; to I7W, -0.003 ± 0.056; to I7F, 0.009 ± 0.099. With I7R, the abundance fitness was -0.042 ± 0.044.
